In this assay the target is DPP9, short isoform (His-TEV-DPP9), co-expressed with NLRP1ΔΔ for cryo-EM (human, UniProt Q86TI2-1 1-863). The assay is described as follows: cryo-EM structure.
DPP9, short isoform (His-TEV-DPP9), co-expressed with NLRP1ΔΔ for cryo-EM, sequence (Q86TI2 whole entry, stated change not applied, canonical isoform): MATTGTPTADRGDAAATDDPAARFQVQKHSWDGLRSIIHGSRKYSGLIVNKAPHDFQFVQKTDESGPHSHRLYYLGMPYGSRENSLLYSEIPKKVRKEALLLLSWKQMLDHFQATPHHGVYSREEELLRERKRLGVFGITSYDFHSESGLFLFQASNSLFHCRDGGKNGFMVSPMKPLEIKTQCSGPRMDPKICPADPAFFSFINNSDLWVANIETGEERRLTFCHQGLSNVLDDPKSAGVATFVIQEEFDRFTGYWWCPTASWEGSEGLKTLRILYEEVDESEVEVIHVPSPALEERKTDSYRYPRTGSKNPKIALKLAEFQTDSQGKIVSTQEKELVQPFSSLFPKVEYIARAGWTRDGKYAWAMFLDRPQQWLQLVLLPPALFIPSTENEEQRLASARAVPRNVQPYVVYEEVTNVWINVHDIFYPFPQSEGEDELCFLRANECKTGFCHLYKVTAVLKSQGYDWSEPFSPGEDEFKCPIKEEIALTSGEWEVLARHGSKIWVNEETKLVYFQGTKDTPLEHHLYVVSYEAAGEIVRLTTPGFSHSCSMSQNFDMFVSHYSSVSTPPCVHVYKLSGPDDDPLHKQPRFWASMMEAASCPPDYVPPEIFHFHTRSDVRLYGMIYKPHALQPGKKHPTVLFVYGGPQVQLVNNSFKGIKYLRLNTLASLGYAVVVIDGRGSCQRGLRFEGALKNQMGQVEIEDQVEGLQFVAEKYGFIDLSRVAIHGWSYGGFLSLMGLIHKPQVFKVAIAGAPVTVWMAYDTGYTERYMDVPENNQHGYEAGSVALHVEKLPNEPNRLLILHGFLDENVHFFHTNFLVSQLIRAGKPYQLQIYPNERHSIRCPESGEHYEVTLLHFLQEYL

B1: NLRP1-CT freed from NLRP1ΔΔ (UPA subdomain only), molecule B of the NLRP1^A-NLRP1^B-DPP9 ternary complex (domain or fragment, human, UniProt Q9C000-1 1213-1364, looked up)
chain: SPLGVLLKMIHNALRFIPVTSVVLLYHRVHPEEVTFHLYLIPSDCSIRKAIDDLEMKFQFVRIHKPPPLTPLYMGCRYTVSGSGSGMLEILPKELELCYRSPGEDQLFSEFYVGHLGSGIRLQVKDKKDETLVWEALVKPGDLMPATTLIPP
On to B1, for which the binding result was “binds”.

These data come from publication doi:10.1101/2020.08.14.246132 (bioRxiv, 2020).
